Experimental data as given in patent publication US20250289865A1 (TIOC THERAPEUTICS, published 2025).

Columns and labels:
[1] = molecular target: T1, AFP peptide on HLA-A*02:01 (human); test: killing
T1 peptide: FMNKFIYEI

[2] = molecular target: peptide on A2 positive (human); test: LDH release; CD8+ T cells, E:T 1:1; AFP-negative, A2-positive control cells. No unit is printed with the value.; fusion: antibody heavy chain variable region (Gln105Cys) on the beta chain, with free VL Ala43Cys; conditions: chains Valpha:Vbeta
[3] = molecular target: … short peptide (AFP 158-166) presented on the HLA-A*0201 molecule; test: cell-based or functional assay

B1: AFP TCR (TCR, V domains shown)
Valpha: SQQGEEDPQALSIQEGENATMNCSYKDRITNLQWYRQNSGRGLVHLILIRSNEREKHSGRLRVTLDTSKKSSSLLITASRAADTASYFCATDLEAEYKYIFGTGTRLKVLA
Vbeta: ETGVTQSPTHLIKTRGQQVTLRCSSQSGHNTVSWYQQALGQGPQFIFQYYRQVANGRGNFPPRFSGLQFPNYSSELNVNALELDDSALYLCASSKDAGPVFFGQGTRLTVV
[1]
  binding result: recognises
[2]
  EC50 of fusion protein in killing: 2700 nM

B2: VH105-TCR β-AFP multi-domain bifunctional fusion molecule (other)
TCR alpha: SQQGEEDPQALSIQEGENATMNCSYKDRITNLQWYRQNSGRGLVHLILIRSNEREKHSGRLRVTLDTSKKSSSLLITASRAADTASYFCATDLEAEYKYIFGTGTRLKVLANIQNPDPAVYQLRDSKSSDKSVCLFTDFDSQTNVSQSKDSDVYITDKTVLDMRSMDFKSNSAVAWSNKSDFACANAFNNSIIPEDTFFCSPESS
chain: EVQLVESGGGLVQPGGSLRLSCAASGYSFTGYTMNWVRQAPGKGLEWVALINPYKGVSTYNQKFKDRFTISVDKSKNTAYLQMNSLRAEDTAVYYCARSGYYGDSDWYFDVWGCGTLVTVSSGGGGSETGVTQSPTHLIKTRGQQVTLRCSSQSGHNTVSWYQQALGQGPQFIFQYYRQVANGRGNFPPRFSGLQFPNYSSELNVNALELDDSALYLCASSKDAGPVFFGQGTRLTVVEDLKNVFPPEVAVFEPSECEISHTQKATLVCLATGFYPDHVELSWWVNGKEVHSGVSTDPQPLKEQPALNDSRYALSSRLRVSATFWQNPRNHFRCQVQFYGLSENDEWTQDRAKPVTQIVSAEAWGRAD
VL: DIQMTQSPSSLSASVGDRVTITCRASQDIRNYLNWYQQKPGKCPKLLIYYTSRLESGVPSRFSGSGSGTDYTLTISSLQPEDFATYYCQQGNTLPWTFGQGTKVEIKR
[3]
  EC50 of CD8+ T cell killing (LDH release), HepG2 (A2 positive, AFP positive): 10.5 nM
